Data published in article PMC4634974, “Carbon Catabolite Repression and the Related Genes of ccpA, ptsH and hprK in Thermoanaerobacterium aotearoense” (PLoS ONE, 2015).
Substitutions are numbered along the chain they refer to.

Key:
[1] = molecular target: catabolite control protein A (CcpA) from T. aotearoense SCUT27 with a C-terminal His-tag (Thermoanaerobacterium aotearoense SCUT27) (UniProt T1SCF9); assay: SPR; SPRi (Plexera V3), 25°C; CcpA printed as spots on gold-coated sensor slides by amine coupling; HPr, HPrSerP or HPrM flowed as analytes at 2 μL/s, association and dissociation 300 s each; PBST pH 7.2 running buffer; BSA as reference; Langmuir binding model
Chain of catabolite control protein A (CcpA) from T. aotearoense SCUT27 with a C-terminal His-tag (Thermoanaerobacterium aotearoense SCUT27) (T1SCF9 entry or part of it): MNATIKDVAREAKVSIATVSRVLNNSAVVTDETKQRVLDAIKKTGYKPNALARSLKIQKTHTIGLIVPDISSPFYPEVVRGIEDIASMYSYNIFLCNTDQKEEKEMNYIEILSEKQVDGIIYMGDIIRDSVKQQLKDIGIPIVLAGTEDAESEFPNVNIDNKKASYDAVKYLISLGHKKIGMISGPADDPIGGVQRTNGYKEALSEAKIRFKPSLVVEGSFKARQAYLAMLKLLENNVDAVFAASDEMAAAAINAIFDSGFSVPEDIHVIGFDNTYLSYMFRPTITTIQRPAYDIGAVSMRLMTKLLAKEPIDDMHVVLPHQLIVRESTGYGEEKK

[2] = molecular target: T1, HPrK/P (HPr kinase/phosphatase) (Thermoanaerobacterium aotearoense, UniProt A0A0S1LJ76); assay: HPr phosphorylation, Phos-tag SDS-PAGE; assay type: biochemical; settings: 5 mM ATP, 50 uM HPr, 5 mM MgCl2, 10 mM NaCl, 100 mM Tris-Cl pH 7.0, 37 C, 10 min
T1 construct: protein substrate recombinant HPr (KR818834) of the same strain
T1 sequence (A0A0S1LJ76 1-304): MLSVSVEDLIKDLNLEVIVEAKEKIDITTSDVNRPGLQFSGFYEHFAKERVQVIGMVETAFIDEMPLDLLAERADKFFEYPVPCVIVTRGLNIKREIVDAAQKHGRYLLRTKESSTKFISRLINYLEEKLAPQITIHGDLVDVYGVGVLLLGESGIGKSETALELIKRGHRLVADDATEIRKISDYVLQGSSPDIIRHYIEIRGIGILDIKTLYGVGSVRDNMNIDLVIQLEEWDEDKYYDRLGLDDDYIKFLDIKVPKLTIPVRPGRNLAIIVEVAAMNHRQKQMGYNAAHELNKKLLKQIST

[3] = molecular target: T2, catabolite control protein A (CcpA) from T. aotearoense SCUT27 with a C-terminal His-tag (Thermoanaerobacterium aotearoense SCUT27, UniProt T1SCF9 1-336); assay: SPR; SPRi (Plexera V3), 25°C; CcpA printed as spots on gold-coated sensor slides by amine coupling; HPr, HPrSerP or HPrM flowed as analytes at 2 μL/s, association and dissociation 300 s each; PBST pH 7.2 running buffer; BSA as reference; Langmuir binding model; settings: both partners purified
T2 construct: CcpA, catabolite control protein A, Thermoanaerobacterium aotearoense SCUT27; ORF of 336 amino acids (ccpA gene, 1011 bp, GenBank KC899078); full-length gene cloned into pET30a (NdeI/XhoI); The genomic primer begins with GTG, the expression primer Tc-F with ATG; Cloning through XhoI of pET30a probably adds LE before the His-tag (surmised); also called pET-CcpA product; source: E. coli BL21(DE3), …
T2 sequence (T1SCF9 entry or part of it): as the sequence (T1SCF9 entry or part of it) above

Molecule: Histidine-containing Protein (HPr) from T. aotearoense SCUT27 with a C-terminal His-tag, not phosphorylated (natural protein)
- Kd [1]: 2290 nM
- koff [1]: 0.000922 s⁻¹
- kon [1]: 403 M⁻¹ s⁻¹

Molecule: Nc1ncnc2c1ncn2[C@@H]1O[C@H](COP(=O)(O)OP(=O)(O)OP(=O)(O)O)[C@@H](O)[C@H]1O [ATP]
- HPr phosphorylation, Phos-tag SDS-PAGE [2]: HPrK/P lost its kinase activity when there was no ATP in the reaction mixture

B1: HPrM, HPr from T. aotearoense SCUT27 with Ser46 mutated to Ala, C-terminal His-tag (natural protein)
chain: MTEKTVEIKNKTGLHARPAALFVQAASKFSSQIWVEKENKKVNAKAIMGIMSLGVAQGNTVKLIADGSDEQEAIKTLVDLIDSKFGEE
- Kd [3]: 6.01 µM
- koff [3]: 0.000576 s⁻¹
- kon [3]: 95.8 M⁻¹ s⁻¹

B2: seryl-phosphorylated HPr (HPrSerP) from T. aotearoense SCUT27 with a C-terminal His-tag (natural protein, Thermoanaerobacterium aotearoense SCUT27, UniProt A0A0S1LJA4 1-88, looked up)
chain: B1 chain with A46S
modifications: phosphoserine at 46
notes: HPr, histidine-containing protein, Thermoanaerobacterium aotearoense SCUT27; ORF of 88 amino acids (ptsH gene, GenBank KR818834); full-length gene cloned into pET30a (NdeI/HindIII); phosphorylated at Ser46; Same chain as m3, phosphorylated at Ser46 by recombinant HPrK/P; also called HPrK/P treated HPr; source: E. coli BL21(DE3), purified (HiTrap Chelating HP, desalting column), phosphorylated in …
- Kd [3]: 0.00222 µM
- koff [3]: 7.78e-07 s⁻¹
- kon [3]: 350 M⁻¹ s⁻¹
